T1: Psf2-SpA (S. cerevisiae (endogenous in budding …, UniProt P40359 1-213))
T1 sequence (looked up): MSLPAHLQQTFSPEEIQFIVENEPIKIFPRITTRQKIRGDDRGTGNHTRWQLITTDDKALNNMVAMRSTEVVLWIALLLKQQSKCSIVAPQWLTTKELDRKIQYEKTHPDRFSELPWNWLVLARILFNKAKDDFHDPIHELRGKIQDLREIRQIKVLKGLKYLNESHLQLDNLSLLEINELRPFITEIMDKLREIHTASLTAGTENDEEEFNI

B1: Nup85 (natural protein, UniProt P46673 1-744, looked up)
chain: MTIDDSNRLLMDVDQFDFLDDGTAQLSNNKTDEEEQLYKRDPVSGAILVPMTVNDQPIEKNGDKMPLKFKLGPLSYQNMAFITAKDKYKLYPVRIPRLDTSKEFSAYVSGLFEIYRDLGDDRVFNVPTIGVVNSNFAKEHNATVNLAMEAILNELEVFIGRVKDQDGRVNRFYELEESLTVLNCLRTMYFILDGQDVEENRSEFIESLLNWINRSDGEPDEEYIEQVFSVKDSTAGKKVFETQYFWKLLNQLVLRGLLSQAIGCIERSDLLPYLSDTCAVSFDAVSDSIELLKQYPKDSSSTFREWKNLVLKLSQAFGSSATDISGELRDYIEDFLLVIGGNQRKILQYSRTWYESFCGFLLYYIPSLELSAEYLQMSLEANVVDITNDWEQPCVDIISGKIHSILPVMESLDSCTAAFTAMICEAKGLIENIFEGEKNSDDYSNEDNEMLEDLFSYRNGMASYMLNSFAFELCSLGDKELWPVAIGLIALSATGTRSAKKMVIAELLPHYPFVTNDDIEWMLSICVEWRLPEIAKEIYTTLGNQMLSAHNIIESIANFSRAGKYELVKSYSWLLFEASCMEGQKLDDPVLNAIVSKNSPAEDDVIIPQDILDCVVTNSMRQTLAPYAVLSQFYELRDREDWGQALRLLLLLIEFPYLPKHYLVLLVAKFLYPIFLLDDKKLMDEDSVATVIEVIETKWDDADEKSSNLYETIIEADKSLPSSMATLLKNLRKKLNFKLCQAFM
B2: Nup120 (natural protein, UniProt P35729 1-1037, looked up)
chain: MACLSRIDANLLQYYEKPEPNNTVDLYVSNNSNNNGLKEGDKSISTPVPQPYGSEYSNCLLLSNSEYICYHFSSRSTLLTFYPLSDAYHGKTINIHLPNASMNQRYTLTIQEVEQQLLVNVILKDGSFLTLQLPLSFLFSSANTLNGEWFHLQNPYDFTVRVPHFLFYVSPQFSVVFLEDGGLLGLKKVDGVHYEPLLFNDNSYLKSLTRFFSRSSKSDYDSVISCKLFHERYLIVLTQNCHLKIWDLTSFTLIQDYDMVSQSDSDPSHFRKVEAVGEYLSLYNNTLVTLLPLENGLFQMGTLLVDSSGILTYTFQNNIPTNLSASAIWSIVDLVLTRPLELNVEASYLNLIVLWKSGTASKLQILNVNDESFKNYEWIESVNKSLVDLQSEHDLDIVTKTGDVERGFCNLKSRYGTQIFERAQQILSENKIIMAHNEDEEYLANLETILRDVKTAFNEASSITLYGDEIILVNCFQPYNHSLYKLNTTVENWFYNMHSETDGSELFKYLRTLNGFASTLSNDVLRSISKKFLDIITGELPDSMTTVEKFTDIFKNCLENQFEITNLKILFDELNSFDIPVVLNDLINNQMKPGIFWKKDFISAIKFDGFTSIISLESLHQLLSIHYRITLQVLLTFVLFDLDTEIFGQHISTLLDLHYKQFLLLNLYRQDKCLLAEVLLKDSSEFSFGVKFFNYGQLIAYIDSLNSNVYNASITENSFFMTFFRSYIIENTSHKNIRFFLENVECPFYLRHNEVQEFMFAMTLFSCGNFDQSYEIFQLHDYPEAINDKLPTFLEDLKSENYHGDSIWKDLLCTFTVPYRHSAFYYQLSLLFDRNNSQEFALKCISKSAEYSLKEIQIEELQDFKEKQHIHYLNLLIHFRMFEEVLDVLRLGHECLSDTVRTNFLQLLLQEDIYSRDFFSTLLRLCNAHSDNGELYLRTVDIKIVDSILSQNLRSGDWECFKKLYCFRMLNKSERAAAEVLYQYILMQADLDVIRKRKCYLMVINVLSSFDSAYDQWILNGSKVVTLTDLRDELRGL
B3: Seh1 (natural protein, UniProt P53011 1-349, looked up)
chain: MQPFDSGHDDLVHDVVYDFYGRHVATCSSDQHIKVFKLDKDTSNWELSDSWRAHDSSIVAIDWASPEYGRIIASASYDKTVKLWEEDPDQEECSGRRWNKLCTLNDSKGSLYSVKFAPAHLGLKLACLGNDGILRLYDALEPSDLRSWTLTSEMKVLSIPPANHLQSDFCLSWCPSRFSPEKLAVSALEQAIIYQRGKDGKLHVAAKLPGHKSLIRSISWAPSIGRWYQLIATGCKDGRIRIFKITEKLSPLASEESLTNSNMFDNSADVDMDAQGRSDSNTEEKAELQSNLQVELLSEHDDHNGEVWSVSWNLTGTILSSAGDDGKVRLWKATYSNEFKCMSVITAQQ
B4: Sec13 (natural protein, UniProt Q04491 1-297, looked up)
chain: MVVIANAHNELIHDAVLDYYGKRLATCSSDKTIKIFEVEGETHKLIDTLTGHEGPVWRVDWAHPKFGTILASCSYDGKVLIWKEENGRWSQIAVHAVHSASVNSVQWAPHEYGPLLLVASSDGKVSVVEFKENGTTSPIIIDAHAIGVNSASWAPATIEEDGEHNGTKESRKFVTGGADNLVKIWKYNSDAQTYVLESTLEGHSDWVRDVAWSPTVLLRSYLASVSQDRTCIIWTQDNEQGPWKKTLLKEEKFPDVLWRASWSLSGNVLALSGGDNKVTLWKENLEGKWEPAGEVHQ
B5: Nup145C (natural protein, UniProt P49687 606-1317, looked up)
chain: SIWGLVNEEDAEIDEDDLSKQEDGGEQPLRKVRTLAQSKPSDKEVILKTDGTFGTLSGKDDSIVEEKAYEPDLSDADFEGIEASPKLDVSKDWVEQLILAGSSLRSVFATSKEFDGPCQNEIDLLFSECNDEIDNAKLIMKERRFTASYTFAKFSTGSMLLTKDIVGKSGVSIKRLPTELQRKFLFDDVYLDKEIEKVTIEARKSNPYPQISESSLLFKDALDYMEKTSSDYNLWKLSSILFDPVSYPYKTDNDQVKMALLKKERHCRLTSWIVSQIGPEIEEKIRNSSNEIEQIFLYLLLNDVVRASKLAIESKNGHLSVLISYLGSNDPRIRDLAELQLQKWSTGGCSIDKNISKIYKLLSGSPFEGLFSLKELESEFSWLCLLNLTLCYGQIDEYSLESLVQSHLDKFSLPYDDPIGVIFQLYAANENTEKLYKEVRQRTNALDVQFCWYLIQTLRFNGTRVFSKETSDEATFAFAAQLEFAQLHGHSLFVSCFLNDDKAAEDTIKRLVMREITLLRASTNDHILNRLKIPSQLIFNAQALKDRYEGNYLSEVQNLLLGSSYDLAEMAIVTSLGPRLLLSNNPVQNNELKTLREILNEFPDSERDKWSVSINVFEVYLKLVLDNVETQETIDSLISGMKIFYDQYKHCREVAACCNVMSQEIVSKILEKNNPSIGDSKAKLLELPLGQPEKAYLRGEFAQDLMKCTYKI
B6: Sld5 (natural protein, UniProt Q03406 1-294, looked up)
chain: MDINIDDILAELDKETTAVDSTKITQGSSSTTHRDANTIVGSSLDLNDKTQIYVSPQQDFSDLMKSWKNERCSPELLPYPHQLMKRLLNRISMQSQLIENISMGFLDMQNASNANPPMPNESKLPLLCMETELERLKFVIRSYIRCRLSKIDKFSLYLRQLNEDENSLISLTDLLSKDEIKYHDTHSLIWLKLVNDSILKYMPEELQAINDTEGSVNMIDEPDWNKFVFIHVNGPPDGKWNEDPLLQENEFGKPCYTVTIPDLKEEVELTIGSIYVMRYEVIRDLLRDDKVALI
B7: Psf1 (natural protein, UniProt Q12488 1-208, looked up)
chain: MYGDLGNKLVLEAKRTKQLYARSNQDVNLPMYHEDIIRNILKEVSNLRKNTEYLKEQQQLGMLDDKVAKCQYFVTLLCMERNKRCLLAYQRLRTDILDSMAWNNNGLDLMSSITFSQQDTNNLSHQEQEYLKEYCDLITDLKSGDLVDIDLSGSLVPPSDVFIDVRVLKDAGEIQTEYGVFNLIKDSQFFVRQSDVERLIQQGYLQKI
B8: Psf3 (natural protein, UniProt Q12146 1-194, looked up)
chain: MGYYDIDDVLADGTEFPCKFQYDIPGLGYLENNPGRPITKNTKLSLPLWLARILAIVGGDEALVDEEPVPFVELLPPDMFSTKVMNAIKTDPVALDLHSINSHFFSLAIKWIMLFSEKELANVVSELLLQRAQELNHHASSLSIDLNADSTGKNSANTNIATSTFLLKLEEMEKEIYKKSHESYKDTKRWMFKK

biological target: Nup84-HRV-SpA (S. cerevisiae (endogenous in budding …, UniProt P52891 1-726)); experiment: native MS
Sequence (P52891 whole entry): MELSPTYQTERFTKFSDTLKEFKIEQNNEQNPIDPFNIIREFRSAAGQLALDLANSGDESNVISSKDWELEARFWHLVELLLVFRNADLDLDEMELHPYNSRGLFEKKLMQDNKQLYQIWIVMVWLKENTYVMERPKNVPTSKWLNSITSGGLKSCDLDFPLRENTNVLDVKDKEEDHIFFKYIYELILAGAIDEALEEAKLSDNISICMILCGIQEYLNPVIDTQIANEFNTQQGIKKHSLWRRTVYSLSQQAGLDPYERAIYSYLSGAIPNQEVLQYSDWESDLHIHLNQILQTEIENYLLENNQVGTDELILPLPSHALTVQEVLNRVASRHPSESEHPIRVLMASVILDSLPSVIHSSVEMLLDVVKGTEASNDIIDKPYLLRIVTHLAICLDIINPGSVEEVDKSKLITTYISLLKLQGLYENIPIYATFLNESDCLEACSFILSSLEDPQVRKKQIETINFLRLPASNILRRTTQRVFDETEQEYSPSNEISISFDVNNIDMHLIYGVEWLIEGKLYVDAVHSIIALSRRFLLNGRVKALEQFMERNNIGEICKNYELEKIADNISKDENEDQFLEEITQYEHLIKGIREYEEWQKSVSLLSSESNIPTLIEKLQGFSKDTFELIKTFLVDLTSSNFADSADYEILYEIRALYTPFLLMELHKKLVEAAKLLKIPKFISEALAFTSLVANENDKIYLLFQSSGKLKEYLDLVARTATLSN

Stoichiometry N, 1:
B1, B2, B3, B4, B5

biological target: T1, Psf2-SpA; experiment: native MS

Stoichiometry N, 1:
B6, B7, B8

— publication PMC4790104 (Analytical chemistry, 2016)
